Stoichiometry N, Kd and binding signal data for two molecules are collected here from PMC1669778.

In data set [1] the target is C-terminal fragment of human topoisomerase I (HTOP14) (human) (UniProt P11387). The experiment in a line: pull-down.
Data set [2] addresses small subunit of L.donovani topoisomerase I (LdTOP1S) (Leishmania donovani). Put plainly: fluorescence polarisation. In general terms: In fluorescence polarisation assays a small probe gives low polarisation when free and higher when bound to something large.
Data set [3] deals with C-terminal fragment of human topoisomerase I (HTOP14) (human) (UniProt P11387). The experiment in a line: fluorescence polarisation.
The target in a further data set is LdTOP1L-fus-HTOP14 (Leishmania donovani / human chimera, UniProt A0A3Q8IHS4 1-635+=EF+P11387:636-765, internal_change). Put plainly: SDS trapping of covalent complex.

The term stoichiometry N denotes the number of molecules, sites or subunits per partner or assembly. As a reminder, the Kd is the concentration at which binding is half-saturated. A high value points to lower affinity. On to “large subunit of L.donovani topoisomerase I (LdTOP1L) (natural protein)”, for which the stoichiometry N in data set [1] was found to be 1. For the same molecule, the figures for the Kd in data set [2] and in data set [3] were 59.8 nM and 162 nM, respectively.

B1: 25mer duplex ML25/MC25 (dsDNA)
DNA 1: GAAAAAAGACTTAGAAAAATTTTTA
DNA 2: TAAAAATTTTTCTAAGTCTTTTTTC
For B1, the binding signal with LdTOP1L-fus-HTOP14 was ~2 fold more covalent complex than LdTOP1L/S.
